In patent US20160251440A1 (Ablynx, published 2016):
Substitutions are numbered along the chain they refer to. Numbers in names are those of the source. Read-outs that look alike come from different tables or passages of the source.

Experiments:
[1] = molecular target: T1, human CEACAM5, cell-expressed (human, UniProt P06731 35-685); assay: FACS, LoVo cells
T1 construct: whole, on cells
T1 sequence (looked up): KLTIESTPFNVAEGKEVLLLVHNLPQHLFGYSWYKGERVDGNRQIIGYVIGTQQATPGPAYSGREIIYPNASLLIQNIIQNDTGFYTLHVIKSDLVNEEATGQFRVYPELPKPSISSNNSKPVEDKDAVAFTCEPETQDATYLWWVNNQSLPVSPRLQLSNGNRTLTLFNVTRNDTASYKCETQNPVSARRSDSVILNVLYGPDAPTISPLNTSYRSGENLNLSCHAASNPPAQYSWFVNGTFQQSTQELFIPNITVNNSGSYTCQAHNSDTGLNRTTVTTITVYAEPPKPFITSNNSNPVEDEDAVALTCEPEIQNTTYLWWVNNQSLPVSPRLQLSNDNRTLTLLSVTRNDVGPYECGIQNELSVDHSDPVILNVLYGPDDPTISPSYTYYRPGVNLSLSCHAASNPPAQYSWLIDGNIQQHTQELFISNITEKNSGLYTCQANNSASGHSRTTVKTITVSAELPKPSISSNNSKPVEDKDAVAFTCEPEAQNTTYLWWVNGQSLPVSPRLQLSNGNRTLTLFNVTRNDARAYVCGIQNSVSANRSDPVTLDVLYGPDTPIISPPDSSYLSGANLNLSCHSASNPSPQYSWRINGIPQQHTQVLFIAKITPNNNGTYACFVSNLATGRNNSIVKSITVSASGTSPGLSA

[2] = molecular target: T2, recombinant human CEACAM5 (human, UniProt P06731 35-685); assay: ELISA, coated CEACAM5
T2 construct: also called hCEACAM-5; R&D Systems 4128-CM
T2 sequence (looked up): T1 sequence (looked up)

[3] = molecular target: T3, human CXCR4 (on cells, viral lipoparticles or membrane extracts) (human, UniProt P61073 1-352); assay: cell-based or functional assay
T3 sequence (P61073 whole entry): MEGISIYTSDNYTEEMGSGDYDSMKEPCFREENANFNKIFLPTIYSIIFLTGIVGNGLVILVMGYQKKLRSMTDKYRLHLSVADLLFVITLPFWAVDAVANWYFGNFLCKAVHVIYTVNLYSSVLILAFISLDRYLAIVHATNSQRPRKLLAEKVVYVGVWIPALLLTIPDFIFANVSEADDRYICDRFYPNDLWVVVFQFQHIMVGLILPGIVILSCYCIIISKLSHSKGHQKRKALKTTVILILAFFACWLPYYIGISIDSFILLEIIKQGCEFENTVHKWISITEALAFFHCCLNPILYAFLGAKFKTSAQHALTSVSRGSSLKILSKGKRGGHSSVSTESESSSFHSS

[4] = molecular target: T4, CXCR4 and IL-3Rα (CD123) co-expressed on MOLM-13 / THP-1 cells (human, UniProt P61073 1-352; P26951 19-378); assay: flow cytometry on THP-1 cells (CXCR4 and IL-3Ra)
T4 construct: whole, on cells; two separate membrane proteins on one cell, not a complex; target of bispecifics on double-positive cells; also called CXCR4+/CD123+ cells
T4 sequence (P61073 whole entry, one chain of several): as the sequence (P61073 whole entry) above

[5] = molecular target: T4, CXCR4 and IL-3Rα (CD123) co-expressed …; assay: flow cytometry on MOLM-13 cells (IL-3Ra higher than CXCR4)
[6] = molecular target: T5, recombinant IL-3Rα ectodomain (human, UniProt P26951 19-305); assay: ELISA on recombinant IL-3Ra ectodomain (panel 'IL-3Ra ELISA', lower left)
T5 construct: extracellular domain; also called recombinant IL-3Ra; biotinylated-IL-3Rα ectodomain
T5 sequence (looked up): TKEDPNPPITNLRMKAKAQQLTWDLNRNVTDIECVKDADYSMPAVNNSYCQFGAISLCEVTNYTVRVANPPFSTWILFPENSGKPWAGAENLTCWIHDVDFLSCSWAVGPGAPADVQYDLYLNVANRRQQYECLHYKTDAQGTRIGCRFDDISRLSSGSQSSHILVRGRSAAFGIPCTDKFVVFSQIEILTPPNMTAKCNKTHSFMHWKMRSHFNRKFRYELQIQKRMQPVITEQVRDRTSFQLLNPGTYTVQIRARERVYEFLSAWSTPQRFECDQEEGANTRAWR

[7] = molecular target: T1, human CEACAM5, cell-expressed; assay: FACS, LoVo cells; remark: listed apart in the source
[8] = molecular target: T2, recombinant human CEACAM5; assay: ELISA, coated CEACAM5; remark: listed apart in the source
[9] = molecular target: T2, recombinant human CEACAM5; assay: SPR Biacore T100, immobilised hCEACAM-5
[10] = molecular target: T6, human EGFR, cell-expressed (human, UniProt P00533 25-1210); assay: flow cytometry on HER14 cells (EGFR only), anti-Flag detection
T6 construct: whole, on cells; also called ErbB-1

[11] = molecular target: T7, CXCR4 and CD4 co-expressed on cells (MOLM-13, THP-1, MT-4, PBMC; Jurkat CD4 low) (human, UniProt P61073 1-352; P01730 26-458); assay: cell-based or functional assay
T7 sequence (P61073 whole entry, chain 1 of 2, other chains not shown): as the sequence (P61073 whole entry) above

[12] = molecular target: T3, human CXCR4 (on cells, viral …); assay: ELISA on coated hCXCR4 lipoparticles against null lipoparticles at 100, 10, 1 and 0 nM, anti-c-myc detection
[13] = molecular target: T3, human CXCR4 (on cells, viral …); assay: cell-based or functional assay; remark: listed apart in the source
[14] = molecular target: T7, CXCR4 and CD4 co-expressed on cells …; assay: cell-based or functional assay; remark: listed apart in the source
[15] = molecular target: T7, CXCR4 and CD4 co-expressed on cells …; assay: cell-based or functional assay; remark: listed apart in the source
[16] = molecular target: T7, CXCR4 and CD4 co-expressed on cells …; assay: FACS, MOLM-13 cells (CXCR4+/CD4+)
[17] = molecular target: T7, CXCR4 and CD4 co-expressed on cells …; assay: FACS, Jurkat E6-1 cells (CXCR4+/CD4 low)
[18] = molecular target: T7, CXCR4 and CD4 co-expressed on cells …; assay: flow cytometry on THP-1 cells (CD4 and CXCR4), detection via tag
[19] = molecular target: T5, recombinant IL-3Rα ectodomain; assay: ELISA on recombinant IL-3Ra ectodomain (lower right panel)
[20] = molecular target: T3, human CXCR4 (on cells, viral …); assay: ELISA on coated CXCR4 viral lipoparticles (panel 'CXCR4 VLP Binding', upper left)
[21] = molecular target: T4, CXCR4 and IL-3Rα (CD123) co-expressed …; assay: flow cytometry at one concentration, 4.6 nM, on MOLM-13 cells (CXCR4+/CD123+), anti-FLAG detection

B1: CEA#1-35GS-ctrl (bispecific antibody)
chain: EVQLVESGGGSVQAGGSLRLSCAASGDTYGSYWMGWFRQAPGKEREGVAAINRGGGYTVYADSVKGRFTISRDTAKNTVYLQMNSLRPDDTADYYCAASGVLGGLHEDWFNYWGQGTLVTVSSGGGGSGGGGSGGGGSGGGGSGGGGSGGGGSGGGGSDVQLQASGGGSVQAGGSLRLSCAASGYTIGPYCMGWFRQAPGKEREGVAAINMGGGITYYADSVKGRFTISQDNAKNTVYLLMNSLEPEDTAIYYCAADSTIYASYYECGHGLSTGGYGYDSWGQGTQVTVSS
notes: also called BI#48; T023200048
EC50 [1]: 0.92 nM
EC50 [2]: 0.026 nM

B2: CEA#5-35GS-ctrl (bispecific antibody)
chain: B1 chain with K43Q, G47A, T74N, V79L
notes: also called BI#51; T023200051
EC50 [1]: 2.6 nM
EC50 [2]: 0.11 nM

B3: 281F12-35GS-55A01 (bispecific antibody)
chain: EVQLVESGGGLVQAGDSLRLSCAASGRAFSRYAMGWFRQAPGKEREFVAAIGWGPSKTNYADSVKGRFTISRDNAKNTVYLQMNTLKPEDTAVYSCAAKFVNTDSTWSRSEMYTYWGQGTLVTVSSGGGGSGGGGSGGGGSGGGGSGGGGSGGGGSGGGGSEVQLVESGGGSVQAGGSLRLSCTTSGRALNMYVMGWFRQAPGNEREFVAATSSSGGSTSYPDSVKGRFTISRDNAKNTVYLQMNSLKPEDTAAYRCAASPYVSTPTMNILEEYRYWGQGTLVTVSS
notes: also called CXCR4#2-CD123#2; 281F12-55A01
Fold inc. vs CXCR4#2, Jurkat E6-1 [3]: 1.13 fold
Fold inc. vs CXCR4#2, MOLM-13 [3]: 10.9 fold
IC50, CXCL-12 chemotaxis, Jurkat E6-1 [3]: 86 nM
IC50, CXCL-12 chemotaxis, MOLM-13 [3]: 7.85 nM
EC50 (read off the curve) [4]: ~10 nM
EC50 (read off the curve) [5]: ~10 nM
EC50 (read off the curve) [6]: ~1 nM

B4: CEA#5 (VHH)
VHH: EVQLVESGGGSVQAGGSLRLSCAASGDTYGSYWMGWFRQAPGQEREAVAAINRGGGYTVYADSVKGRFTISRDNAKNTLYLQMNSLRPDDTADYYCAASGVLGGLHEDWFNYWGQGTLVTVSS
notes: also called T023200005; NbCEA5(K43Q, G47A, T73N, V78L)
EC50 [7]: 2.4 nM
EC50 [8]: 0.11 nM
Kd [9]: 3.1 nM
koff [9]: 0.0033 s⁻¹
kon [9]: 1.1e+06 M⁻¹ s⁻¹
binding result [10]: no binding (tested: about 1E-7 M)

B5: CEA#1 (VHH)
VHH: B4 VHH with Q43K, A47G, N74T, L79V
notes: also called NbCEA5
EC50 [7]: 1 nM
EC50 [8]: 0.026 nM
Kd [9]: 0.51 nM
koff [9]: 0.00051 s⁻¹
kon [9]: 990000 M⁻¹ s⁻¹
binding result [10]: no binding (tested: about 1E-7 M)

B6: 281F12-9GS-03F11 (bispecific antibody)
chain: EVQLVESGGGLVQAGDSLRLSCAASGRAFSRYAMGWFRQAPGKEREFVAAIGWGPSKTNYADSVKGRFTISRDNAKNTVYLQMNTLKPEDTAVYSCAAKFVNTDSTWSRSEMYTYWGQGTQVTVSSGGGSGGGGSEVQLVESGGGSVQPGGSLTLSCGTSGRTFNVMGWFRQAPGKEREFVAAVRWSSTGIYYTQYADSVKSRFTISRDNAKNTVYLEMNSLKPEDTAVYYCAADTYNSNPARWDGYDFRGQGTQVTVSS
notes: also called CXCR4#2-9GS-CD4#8
IC50, HIV-1 NL4.3 (X4), MT-4 [11]: 0.2 nM
IC50, HIV-1 NL4.3 (X4), PBMC [11]: 0.03 nM
IC50, HIV-1 NL4.3 (X4), U87 [11]: 0.53 nM
binding result [12]: binds

B7: 03F11-35GS-281F12 (bispecific antibody)
chain: EVQLVESGGGSVQPGGSLTLSCGTSGRTFNVMGWFRQAPGKEREFVAAVRWSSTGIYYTQYADSVKSRFTISRDNAKNTVYLEMNSLKPEDTAVYYCAADTYNSNPARWDGYDFRGQGTQVTVSSGGGGSGGGGSGGGGSGGGGSGGGGSGGGGSGGGGSEVQLVESGGGLVQAGDSLRLSCAASGRAFSRYAMGWFRQAPGKEREFVAAIGWGPSKTNYADSVKGRFTISRDNAKNTVYLQMNTLKPEDTAVYSCAAKFVNTDSTWSRSEMYTYWGQGTQVTVSS
notes: also called CD4#8-35GS-CXCR4#2; CD4#8-CXCR4#2
Fold increase vs CXCR4#2, Jurkat E6-1 [13]: 0.2 fold
Fold increase vs CXCR4#2, MOLM-13 [13]: 67 fold
IC50, SDF-1 chemotaxis, Jurkat E6-1 [13]: 460 nM
IC50, SDF-1 chemotaxis, MOLM-13 [13]: 1.29 nM
IC50, HIV-1 BaL (R5), PBMC [11]: 35.9 nM
IC50, HIV-1 NL4.3 (X4), MT-4 [11]: 11.7 nM
IC50, HIV-1 NL4.3 (X4), PBMC [11]: 23.7 nM
IC50, HIV-1 NL4.3 (X4), U87 [11]: > 3330 nM
IC50, HIV-1 NL4.3 wt, MT-4 [14]: 6 nM
IC50, NL4.3 2G12 res., MT-4 [14]: 3 nM
IC50, NL4.3 AMD-3100 res., MT-4 [14]: 14 nM
IC50, NL4.3 CD4#8 res., MT-4 [14]: 95.7 nM
IC50, NL4.3 CXCL-12res., MT-4 [14]: 70 nM
IC50, NL4.3 CXCR4#2 res, MT-4 [14]: > 310 nM
IC50, HIV-1 HE, MT-4 [15]: 2 nM
IC50, HIV-1 NL4.3, MT-4 [15]: 6 nM
IC50, HIV-2 ROD, MT-4 [15]: 8.75 nM
EC50 [16]: 0.7 nM
EC50 [17]: 1.1 nM
EC50 (read off the curve) [18]: ~1 nM

B8: 57A07-35GS-281F12 (bispecific antibody)
chain: EVQLVESGGGLVQAGGSLRLSCAASGSIFSGNVMGWYRRQAPGKEREWVAAIASGGSIYYRDSVKGRFTISRDNAKNTVYLQMNSLKPEDTAVYYCNSHPPTLPYWGQGTLVTVSSGGGGSGGGGSGGGGSGGGGSGGGGSGGGGSGGGGSEVQLVESGGGLVQAGDSLRLSCAASGRAFSRYAMGWFRQAPGKEREFVAAIGWGPSKTNYADSVKGRFTISRDNAKNTVYLQMNTLKPEDTAVYSCAAKFVNTDSTWSRSEMYTYWGQGTLVTVSS
notes: FLAG3-His6 also made; also called CD123#1-CXCR4#2; 57A07-281F12
EC50 (read off the curve) [19]: ~0.5 nM
binding result [20]: binds
binding result [21]: binds
